Common to all, as to settings: protein: recombinant, tags: 6xHis removed by thrombin, residual N-terminal GSH
One data set has as its target T1, Redβ K148A (bacteriophage λ, UniProt P03698 1-261, K148A).
T1 sequence: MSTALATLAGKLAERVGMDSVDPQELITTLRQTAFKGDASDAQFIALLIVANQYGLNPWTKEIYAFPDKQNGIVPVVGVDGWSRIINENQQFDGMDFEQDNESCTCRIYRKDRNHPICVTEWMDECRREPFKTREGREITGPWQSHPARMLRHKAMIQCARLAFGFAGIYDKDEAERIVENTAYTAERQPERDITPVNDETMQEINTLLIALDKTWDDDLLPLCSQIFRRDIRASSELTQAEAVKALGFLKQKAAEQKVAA
Kind of data set: EMSA; PBS; Anisotropy: 50 mM Tris-HCl pH 7.5, 1 mM DTT, 0.1 mg/mL BSA, 10 nM FAM48, 23 °C (Kd per monomer); gel assay: 10 µM Redβ, 50 µM nt of each oligo, PBS, 37 °C, 1% agarose at 22 °C.

For another data set, the target named is T2, Redβ K61A (bacteriophage λ, UniProt P03698 1-261, K61A).
T2 sequence: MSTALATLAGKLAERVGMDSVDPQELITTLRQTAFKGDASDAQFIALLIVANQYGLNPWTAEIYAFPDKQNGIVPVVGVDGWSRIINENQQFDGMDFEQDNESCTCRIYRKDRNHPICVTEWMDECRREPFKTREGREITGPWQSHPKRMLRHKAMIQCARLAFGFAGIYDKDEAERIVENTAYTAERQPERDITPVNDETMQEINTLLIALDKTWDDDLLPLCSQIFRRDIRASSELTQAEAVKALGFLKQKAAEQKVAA
Described as above.

Another data set concerns the target T3, Redβ K111A (bacteriophage λ, UniProt P03698 1-261, K111A).
T3 sequence: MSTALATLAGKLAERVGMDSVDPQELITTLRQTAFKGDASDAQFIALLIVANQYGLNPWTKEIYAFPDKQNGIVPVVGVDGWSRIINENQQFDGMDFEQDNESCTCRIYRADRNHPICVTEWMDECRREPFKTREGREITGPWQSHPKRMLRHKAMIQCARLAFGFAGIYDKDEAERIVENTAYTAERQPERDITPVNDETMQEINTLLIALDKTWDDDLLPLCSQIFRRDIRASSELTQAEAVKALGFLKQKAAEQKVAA
The description is as above.

Another data set has as its target T4, Redβ K154A (bacteriophage λ, UniProt P03698 1-261, K154A).
T4 sequence: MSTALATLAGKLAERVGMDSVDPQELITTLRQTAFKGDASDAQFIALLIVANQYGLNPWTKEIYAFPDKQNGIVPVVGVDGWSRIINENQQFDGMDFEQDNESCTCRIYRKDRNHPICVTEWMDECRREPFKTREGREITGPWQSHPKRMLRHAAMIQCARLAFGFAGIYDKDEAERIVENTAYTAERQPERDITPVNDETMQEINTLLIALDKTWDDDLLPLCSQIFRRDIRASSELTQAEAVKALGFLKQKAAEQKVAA
The description is as above.

In the next data set the target is T5, Redβ K132A (bacteriophage λ, UniProt P03698 1-261, K132A).
T5 sequence: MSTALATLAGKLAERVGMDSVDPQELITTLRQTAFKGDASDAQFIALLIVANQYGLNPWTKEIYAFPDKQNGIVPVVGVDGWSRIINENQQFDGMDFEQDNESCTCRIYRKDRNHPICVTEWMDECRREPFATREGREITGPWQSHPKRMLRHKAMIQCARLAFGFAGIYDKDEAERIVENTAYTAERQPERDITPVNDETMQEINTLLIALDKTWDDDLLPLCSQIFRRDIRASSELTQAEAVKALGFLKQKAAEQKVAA
The description is as above.

For a further data set, the target named is T6, Redβ K172A (bacteriophage λ, UniProt P03698 1-261, K172A).
T6 sequence: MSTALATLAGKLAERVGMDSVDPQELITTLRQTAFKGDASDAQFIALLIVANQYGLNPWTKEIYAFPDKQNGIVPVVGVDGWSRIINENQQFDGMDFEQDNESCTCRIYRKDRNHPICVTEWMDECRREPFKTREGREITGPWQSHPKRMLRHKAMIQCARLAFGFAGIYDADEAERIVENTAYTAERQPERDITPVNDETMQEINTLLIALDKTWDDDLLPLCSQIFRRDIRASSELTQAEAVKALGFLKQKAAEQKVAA
The data set is described as above.

Another data set concerns the target T7, Redβ K69A (bacteriophage λ, UniProt P03698 1-261, K69A).
T7 sequence: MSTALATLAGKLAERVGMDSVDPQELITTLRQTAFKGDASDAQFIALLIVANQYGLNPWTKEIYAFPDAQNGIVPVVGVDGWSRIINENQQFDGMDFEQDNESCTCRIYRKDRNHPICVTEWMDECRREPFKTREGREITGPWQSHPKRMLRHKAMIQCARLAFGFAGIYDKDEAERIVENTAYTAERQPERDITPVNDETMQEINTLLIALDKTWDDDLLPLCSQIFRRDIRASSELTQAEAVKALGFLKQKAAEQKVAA
Kind of data set: EMSA; PBS; enhanced vs WT; Anisotropy: 50 mM Tris-HCl pH 7.5, 1 mM DTT, 0.1 mg/mL BSA, 10 nM FAM48, 23 °C (Kd per monomer); gel assay: 10 µM Redβ, 50 µM nt of each oligo, PBS, 37 °C, 1% agarose at 22 °C.

As to GCGGATGGCTTAGAGCAGAATCGCCCTGCATAGCTCGATTTTTGCGGATG (ssDNA) [Cy3 50-mer ssDNA], the binding result with Redβ K148A (label: 5'-Cy3), in the data set with Redβ K61A (label: 5'-Cy3), in the data set with Redβ K111A (label: 5'-Cy3), in the data set with Redβ K154A (label: 5'-Cy3), with Redβ K132A (label: 5'-Cy3) and with Redβ K172A (label: 5'-Cy3) was “no binding” each time. Further, the binding result with Redβ K69A (label: 5'-Cy3) is “binds”.

For CCATCCGCAAAAATCGAGCTATGCAGGGCGATTCTGCTCTAAGCCATCCG (ssDNA) [Cy5 50-mer ssDNA], the binding result with Redβ K148A (label: 5'-Cy5), with Redβ K61A (label: 5'-Cy5), in the data set with Redβ K111A (label: 5'-Cy5), with Redβ K154A (label: 5'-Cy5), with Redβ K132A (label: 5'-Cy5) and with Redβ K172A (label: 5'-Cy5) was “no binding” throughout. The binding result in the data set with Redβ K69A (label: 5'-Cy5) was “binds”.

These data come from paper PMC8303780, “Mutational Analysis of Redβ Single Strand Annealing Protein: Roles of the 14 Lysine Residues in DNA Binding and Recombination In Vivo”.
